# B1: PBD: myc-tagged mAKAP aa 2134-2314 fragment, PP2A anchoring disruptor, expressed by adenovirus (protein)
# chain: MEQKLISEEDLSPGMLTMSVTLSPLRSQTPLPPDAVDSGLDDKEDMDCFFEACVEDEPVNEEAGLPGALPNESAIEDGAEQKSEQKTASSPVLSDKTDLVPLSGLSPQKGADDAKEGDDVSHTSQGCAESTEPTTPSGKANAEGRSRMQGVSATPEENAASAKPKIQAFSLNAKQPKGKVAMRYPSPQTLTCKEKLVNFHEDRHSNMHR
# modifications: myc-tagged rat mAKAP PBD
# notes: myc-tagged mAKAP aa 2134-2314 fragment, PP2A anchoring disruptor, expressed by adenovirus
# What was measured:
# [1] = test system: PDE4D3 Ser-54; test: PDE4D3 Ser-54 phosphorylation in mAKAP immunoprecipitates from transfected HEK293 cells (phospho-specific immunoblot); type: cell-based; conditions: HEK293 cells over-expressing mAKAP and PDE4D3; OA or 500 μM CsA for 30 min
# [2] = test system: mAKAP-bound PDE4D3; test: PDE activity associated with mAKAP immunoprecipitates from transfected HEK293 cells ([3H]cAMP); type: cell-based; conditions: 300 μM OA 30 min then 5 μM Fsk 10 min
# Protocol: Immunoprecipitation—HEK293 cells were used in this project as a heterologous system lacking mAKAP in which the various wildtype and mutant proteins could be easily expressed. Cells cultured on 60 mm plates were transfected at 50%-70% confluency by the calcium phosphate method, using 6 μg of each DNA construct per plate. Cells were harvested 24 hours after transfection in 0.5 ml HSE buffer (HEPES, pH 7.4, 150 mM NaCl, 5 mM EDTA, 1% Triton X-100 and protease inhibitors). Supernatants were incubated with 3 μg antibody and 15 μl prewashed protein A- or G-agarose beads. Following overnight incubation at 4° C., the immunoprecipitates were washed three times with the same buffer. Bound proteins were analyzed by immunoblotting. […]
# As phosphorylation of PDE4D3 Ser-54 increases phosphodiesterase activity 2 fold (Sette and Conti 1996), whether OA treatment would also increase the activity of mAKAP-bound PDE4D3 was tested. mAKAP complexes were immunoprecipitated from transfected HEK293 cells and assayed for associated phosphodiesterase activity (FIG. 8B). mAKAP-associated phosphodiesterase activity in untreated cells was detected only when mAKAP was co-expressed with PDE4D3 (FIG. 8B, bar 1, and data not shown), consistent with a previous observation that PDE4D3 accounts for all of the phosphodiesterase activity associated with mAKAP in cardiac myocytes (Dodge et al. 2001).
# [3] = test system: mAKAP-associated phosphodiesterase; test: PDE activity of native mAKAP complexes immunoprecipitated from adult rat heart extracts; type: biochemical
# Protocol: (§1) For immunoprecipitation of endogenous, native mAKAP complexes, adult rat hearts (Pel-Freeze) were homogenized in 10 ml HSE buffer. After centrifugation at 15,000×g for 25 minutes, clarified extracts were immunoprecipitated as above.
# PDE assay—PDE activity associated with immunoprecipitated protein complexes was assayed according to the method by Beavo et al. (Beavo, Bechtel, and Krebs 1974). Samples were assayed in 45 μl PDE buffer A (100 mM MOPS, pH 7.5, 4 mM EGTA, 1.0 mg/ml bovine serum albumin) and 50 μl PDE buffer B [100 mM MOPS, pH 7.5, 75 mM MgAc, 1 μM cAMP and 100,000 cpm [^3H]cAMP (Dupont, NEN)]. Inhibitors were included as indicated.
# [4] = target: T1, mAKAP-associated phosphatase (PP2A) (Rattus norvegicus, UniProt P63331); test: Phosphatase activity of mAKAP complexes immunoprecipitated from adult rat heart extracts ([32P]histone); type: biochemical; conditions: 10 nM
# T1 construct: For immunoprecipitation of endogenous, native mAKAP complexes; tissue Pel-Freeze; host or cells: adult rat heart
# Protocol: as §1
# (§2) Phosphatase Assay—Phosphatase activity was measured according to the method of Ahn et al. using ^32P-labeled histone as substrate (Ahn et al. 2007). Histone was radiolabeled in reactions containing 250 mM MOPS, pH 7.4, 2.5 mM MgAc, 100 mM β-mercaptoethanol, purified PKA catalytic subunit, 1 μM ATP, 20 μM histone, and 1 mCi [γ-^32P]ATP (6000 Ci/mmol). The reaction was terminated by the addition of 50% TCA, and [^32P]histone was purified from free radionucleotide by centrifugation. The [^32P]histone pellet was washed with 1 ml of ether/ethanol/HCL (4:1:0.1) once and 1 ml of ether/ethanol (4:1) three times. The substrate was then suspended in 200 μl PP2A assay buffer (25 mM Tris, pH 7.4, 1 mM DTT, and 10 mM MgCl2) before precipitation with 50% TCA. After repeated washing, the [^32P]histone was suspended in 200 μl PP2A buffer.
# (§3) To measure phosphatase activity, immunoprecipitated protein complexes were washed twice in HSE buffer and once in PP2A reaction buffer. […] TCA supernatants containing released ^32PO4 were measured by scintillation counting.
# [5] = test system: SRF Ser^103; test: SRF Ser103 phosphorylation in neonatal rat ventricular myocytes (NRVM); type: cell-based; conditions: 1 hour, 1 μM OA or 1 μg/ml CsA
# Protocol: (§4) Neonatal Rat Ventricular Myocyte Culture: 1-3 day old Sprague-Dawley rats were decapitated, and the excised hearts placed in 1× ADS Buffer (116 mM NaCl, 20 mM HEPES, 1 mM NaH2PO4, 5.5 mM glucose, 5.4 mM KCl, 0.8 mM MgSO4, pH 7.35). The atria were carefully removed and the blood washed away. The ventricles were minced and incubated with 15 mL 1× ADS Buffer containing 3.3 mg type II collagenase (Worthington, 230 U/mg) and 9 mg Pancreatin (Sigma) at 37° C. with gentle shaking. After 15 minutes, the dissociated cardiac myocytes were separated by centrifugation at 50 g for 1 minute, resuspended in 4 mL horse serum and incubated at 37° C. with occasional agitation. The steps for enzymatic digestion and isolation of myocytes were repeated 10-12 times to maximize yield. The myocytes were pooled and spun down again at 50 g for 2 minutes and resuspended in Maintenance Medium (DMEM:M199, 4:1) supplemented with 10% horse serum and 5% fetal bovine serum. To remove any contaminating fibroblasts, the cells were pre-plated for 1 hour before plating on gelatin-coated tissue culture plastic ware. This procedure yields >90% pure cardiac myocytes. After 1 day culture, the media was changed to maintenance medium containing 0.1 mM bromodeoxyuridine to suppress fibroblast growth. […]
# [6] = test system: mAKAP-associated phosphatase (PP2A); test: Phosphatase activity of mAKAP complexes immunoprecipitated from adult rat heart extracts ([32P]histone); type: biochemical; conditions: 50 μM CPT-cAMP, 5 min pre-incubation
# Protocol: as §1, §2, §3
# [7] = test system: full-length mAKAP mutant with an internal deletion of residues 2053-2073 comprising the PKA binding site (ΔPKA)
# [8] = test system: full-length wildtype mAKAP (GFP-tagged) expressed in HEK293 cells
# [9] = test system: SRF Ser^103; test: SRF Ser103 phosphorylation in adult rat ventricular myocytes (ARVM); type: cell-based; conditions: 10 μM Iso 1 day
# Protocol: Adult rat ventricular myocyte isolation and culture: 2-3 month old rats were anesthetized using Ketamine (80-100 mg/kg) and Xylazine (5-10 mg/kg) IP following 1000 U heparinization for cardiac excision. The heart was transferred immediately into chilled perfusion buffer (NaCl 120 mM, KCl 5.4 mM, Na2HPO4·7H2O 1.2 mM, NaHCO320.0 mM, MgCl2·6H2O 1.6 mM, Taurine 5 mM, Glucose 5.6 mM, 2,3-Butanedione monoxime 10 mM) pre-equilibrated with 95% O2 and 5% CO2. After removal of extraneous tissue, the heart was attached via the aorta to a Harvard Langendorff apparatus cannula. Ca^2+-free perfusion was used to flush out remaining blood with a constant rate of 8-10 mL/min at 37° C. The heart was then digested through circulatory perfusion with 50 mL perfusion buffer containing 125 mg type II collagenase (Worthington, 245 U/mg), 0.1 mg protease (Sigma type XIV) and 0.1% BSA. After perfusion, the atria were removed and the ventricular myocytes dissociated by slicing and repetitive pipetting. The debris was filtered by a 200 μm nylon mesh, and the myocytes collected by one minute centrifugation at 50 g. […]
# [10] = test system: adult rat ventricular myocytes (ARVM); test: ARVM morphologic hypertrophy (cell width and length by immunocytochemistry); type: cell-based; conditions: adenoviral expression; for Iso-induced ARVM hypertrophy: 10 μM Iso 24 hours
# Protocol: Adult rat ventricular myocyte isolation and culture: 2-3 month old rats were anesthetized using Ketamine (80-100 mg/kg) and Xylazine (5-10 mg/kg) IP following 1000 U heparinization for cardiac excision. The heart was transferred immediately into chilled perfusion buffer (NaCl 120 mM, KCl 5.4 mM, Na2HPO4·7H2O 1.2 mM, NaHCO320.0 mM, MgCl2·6H2O 1.6 mM, Taurine 5 mM, Glucose 5.6 mM, 2,3-Butanedione monoxime 10 mM) pre-equilibrated with 95% O2 and 5% CO2. After removal of extraneous tissue, the heart was attached via the aorta to a Harvard Langendorff apparatus cannula. Ca^2+-free perfusion was used to flush out remaining blood with a constant rate of 8-10 mL/min at 37° C. The heart was then digested through circulatory perfusion with 50 mL perfusion buffer containing 125 mg type II collagenase (Worthington, 245 U/mg), 0.1 mg protease (Sigma type XIV) and 0.1% BSA. After perfusion, the atria were removed and the ventricular myocytes dissociated by slicing and repetitive pipetting. The debris was filtered by a 200 μm nylon mesh, and the myocytes collected by one minute centrifugation at 50 g. Ca^2+ concentration in the buffer was gradually recovered to 1.8 mM and the myocytes were resuspended in ACCT medium (M199 Medium (Invitrogen 11150-059), Creatine 5 mM, L-carnitine 2 mM, Taurine 5 mM, HEPES 25 mM, 2,3-Butanedione monoxime 10 mM, BSA 0.2% and 1×Insulin-Transferrin-Selenium Supplement) and plated on 10 μg/ml laminin pre-coated dishes. Cells were washed with ACCT medium 1.5 hours after plating and subjected to adenoviral infection or siRNA transfection, in which 100-200 Multiplicity of Infection (MOI) of adenovirus and 100 nmol/L siRNA mixed with Dharmafect1 (Dharmacon) were used, respectively. Adrenergic agonists were added the next day, with biochemical assay and morphological measurement performed after 24 hours of stimulation.
# Immunocytochemistry: Myocytes on coverslips were fixed in 3.7% formaldehyde in PBS for 1 hour, permeabilized with 0.3% Triton X-100, and blocked in PBS containing 0.2% BSA and 1% horse serum. The slides were then sequentially incubated for 1 hour with primary and Alexa fluorescent dye-conjugated specific-secondary antibodies (Invitrogen, 1:1000) diluted in blocking buffer. The slips were washed three times with blocking buffer. 1 μg/mL Hoechst 33258 was included in the last wash stop to label nuclei. Slides were sealed in SlowFade Gold antifade buffer (Invitrogen, S36938) for fluorescent microscopy. Wide-field images were acquired using a Leica DM4000 Microscope.
# [11] = test system: mAKAPβ-PP2A association; test: Co-immunoprecipitation of endogenous mAKAPβ-PP2A in myocytes; type: cell-based, rat; conditions: NRVM infected with adenovirus
# Protocol: as §4
# Chain of full-length mAKAP mutant with an internal deletion of residues 2053-2073 comprising the PKA binding site (ΔPKA) (chain, as listed by the source mutant): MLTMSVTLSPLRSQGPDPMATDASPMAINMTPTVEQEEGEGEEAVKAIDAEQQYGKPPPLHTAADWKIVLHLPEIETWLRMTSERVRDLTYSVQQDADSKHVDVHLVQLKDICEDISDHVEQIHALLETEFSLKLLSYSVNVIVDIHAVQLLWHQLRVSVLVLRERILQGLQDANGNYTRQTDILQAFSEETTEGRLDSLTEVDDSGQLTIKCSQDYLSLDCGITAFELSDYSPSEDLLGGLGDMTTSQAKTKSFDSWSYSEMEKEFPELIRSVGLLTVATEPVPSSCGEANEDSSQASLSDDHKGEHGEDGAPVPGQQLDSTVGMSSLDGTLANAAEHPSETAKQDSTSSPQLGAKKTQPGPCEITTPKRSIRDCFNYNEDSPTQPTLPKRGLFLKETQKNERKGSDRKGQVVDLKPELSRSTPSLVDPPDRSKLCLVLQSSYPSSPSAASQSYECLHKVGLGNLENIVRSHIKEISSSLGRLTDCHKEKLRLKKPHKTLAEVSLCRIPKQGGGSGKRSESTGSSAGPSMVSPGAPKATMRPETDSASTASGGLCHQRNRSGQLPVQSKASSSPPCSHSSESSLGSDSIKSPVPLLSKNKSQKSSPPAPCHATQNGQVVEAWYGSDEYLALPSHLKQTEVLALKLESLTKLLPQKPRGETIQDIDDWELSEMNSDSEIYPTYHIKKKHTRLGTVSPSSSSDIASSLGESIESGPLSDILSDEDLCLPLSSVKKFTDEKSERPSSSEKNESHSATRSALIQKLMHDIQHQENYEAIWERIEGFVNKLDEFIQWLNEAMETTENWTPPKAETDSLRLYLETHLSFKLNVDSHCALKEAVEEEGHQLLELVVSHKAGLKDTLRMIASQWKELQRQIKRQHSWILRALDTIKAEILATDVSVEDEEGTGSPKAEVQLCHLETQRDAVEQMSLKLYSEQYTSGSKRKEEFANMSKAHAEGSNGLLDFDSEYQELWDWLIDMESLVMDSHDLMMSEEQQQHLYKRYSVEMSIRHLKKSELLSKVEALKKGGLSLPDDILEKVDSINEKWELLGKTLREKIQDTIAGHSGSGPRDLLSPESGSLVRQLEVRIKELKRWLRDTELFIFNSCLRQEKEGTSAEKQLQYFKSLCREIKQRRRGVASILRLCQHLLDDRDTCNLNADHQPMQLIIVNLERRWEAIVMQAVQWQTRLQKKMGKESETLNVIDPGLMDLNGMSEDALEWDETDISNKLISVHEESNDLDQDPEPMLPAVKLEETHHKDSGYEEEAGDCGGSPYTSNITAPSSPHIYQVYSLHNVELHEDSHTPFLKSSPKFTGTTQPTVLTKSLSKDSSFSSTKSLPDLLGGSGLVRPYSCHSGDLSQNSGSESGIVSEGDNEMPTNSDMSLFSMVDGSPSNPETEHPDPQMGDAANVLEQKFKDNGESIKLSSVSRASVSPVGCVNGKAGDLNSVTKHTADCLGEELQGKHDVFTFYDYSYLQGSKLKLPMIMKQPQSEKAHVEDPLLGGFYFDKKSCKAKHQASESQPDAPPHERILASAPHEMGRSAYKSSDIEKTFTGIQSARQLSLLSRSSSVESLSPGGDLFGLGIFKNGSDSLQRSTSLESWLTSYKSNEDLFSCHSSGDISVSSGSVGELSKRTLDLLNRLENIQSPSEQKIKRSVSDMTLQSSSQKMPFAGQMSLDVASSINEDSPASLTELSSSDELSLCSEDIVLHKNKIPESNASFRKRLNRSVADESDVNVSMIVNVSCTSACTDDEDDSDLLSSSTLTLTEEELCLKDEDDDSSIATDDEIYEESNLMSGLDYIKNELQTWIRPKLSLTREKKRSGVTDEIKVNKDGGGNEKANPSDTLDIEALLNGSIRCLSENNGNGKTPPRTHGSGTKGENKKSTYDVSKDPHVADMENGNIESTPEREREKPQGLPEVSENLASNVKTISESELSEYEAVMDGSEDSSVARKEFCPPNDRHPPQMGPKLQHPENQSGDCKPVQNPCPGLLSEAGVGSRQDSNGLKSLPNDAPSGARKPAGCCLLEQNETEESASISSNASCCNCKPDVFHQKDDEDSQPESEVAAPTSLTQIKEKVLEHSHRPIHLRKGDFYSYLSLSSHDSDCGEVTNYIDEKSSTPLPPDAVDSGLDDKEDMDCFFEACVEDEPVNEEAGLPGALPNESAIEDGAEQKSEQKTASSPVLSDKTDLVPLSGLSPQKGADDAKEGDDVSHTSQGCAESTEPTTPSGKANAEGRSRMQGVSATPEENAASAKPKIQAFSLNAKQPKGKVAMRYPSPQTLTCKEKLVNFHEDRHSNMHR
# Chain of full-length wildtype mAKAP (GFP-tagged) expressed in HEK293 cells (chain, as listed by the source): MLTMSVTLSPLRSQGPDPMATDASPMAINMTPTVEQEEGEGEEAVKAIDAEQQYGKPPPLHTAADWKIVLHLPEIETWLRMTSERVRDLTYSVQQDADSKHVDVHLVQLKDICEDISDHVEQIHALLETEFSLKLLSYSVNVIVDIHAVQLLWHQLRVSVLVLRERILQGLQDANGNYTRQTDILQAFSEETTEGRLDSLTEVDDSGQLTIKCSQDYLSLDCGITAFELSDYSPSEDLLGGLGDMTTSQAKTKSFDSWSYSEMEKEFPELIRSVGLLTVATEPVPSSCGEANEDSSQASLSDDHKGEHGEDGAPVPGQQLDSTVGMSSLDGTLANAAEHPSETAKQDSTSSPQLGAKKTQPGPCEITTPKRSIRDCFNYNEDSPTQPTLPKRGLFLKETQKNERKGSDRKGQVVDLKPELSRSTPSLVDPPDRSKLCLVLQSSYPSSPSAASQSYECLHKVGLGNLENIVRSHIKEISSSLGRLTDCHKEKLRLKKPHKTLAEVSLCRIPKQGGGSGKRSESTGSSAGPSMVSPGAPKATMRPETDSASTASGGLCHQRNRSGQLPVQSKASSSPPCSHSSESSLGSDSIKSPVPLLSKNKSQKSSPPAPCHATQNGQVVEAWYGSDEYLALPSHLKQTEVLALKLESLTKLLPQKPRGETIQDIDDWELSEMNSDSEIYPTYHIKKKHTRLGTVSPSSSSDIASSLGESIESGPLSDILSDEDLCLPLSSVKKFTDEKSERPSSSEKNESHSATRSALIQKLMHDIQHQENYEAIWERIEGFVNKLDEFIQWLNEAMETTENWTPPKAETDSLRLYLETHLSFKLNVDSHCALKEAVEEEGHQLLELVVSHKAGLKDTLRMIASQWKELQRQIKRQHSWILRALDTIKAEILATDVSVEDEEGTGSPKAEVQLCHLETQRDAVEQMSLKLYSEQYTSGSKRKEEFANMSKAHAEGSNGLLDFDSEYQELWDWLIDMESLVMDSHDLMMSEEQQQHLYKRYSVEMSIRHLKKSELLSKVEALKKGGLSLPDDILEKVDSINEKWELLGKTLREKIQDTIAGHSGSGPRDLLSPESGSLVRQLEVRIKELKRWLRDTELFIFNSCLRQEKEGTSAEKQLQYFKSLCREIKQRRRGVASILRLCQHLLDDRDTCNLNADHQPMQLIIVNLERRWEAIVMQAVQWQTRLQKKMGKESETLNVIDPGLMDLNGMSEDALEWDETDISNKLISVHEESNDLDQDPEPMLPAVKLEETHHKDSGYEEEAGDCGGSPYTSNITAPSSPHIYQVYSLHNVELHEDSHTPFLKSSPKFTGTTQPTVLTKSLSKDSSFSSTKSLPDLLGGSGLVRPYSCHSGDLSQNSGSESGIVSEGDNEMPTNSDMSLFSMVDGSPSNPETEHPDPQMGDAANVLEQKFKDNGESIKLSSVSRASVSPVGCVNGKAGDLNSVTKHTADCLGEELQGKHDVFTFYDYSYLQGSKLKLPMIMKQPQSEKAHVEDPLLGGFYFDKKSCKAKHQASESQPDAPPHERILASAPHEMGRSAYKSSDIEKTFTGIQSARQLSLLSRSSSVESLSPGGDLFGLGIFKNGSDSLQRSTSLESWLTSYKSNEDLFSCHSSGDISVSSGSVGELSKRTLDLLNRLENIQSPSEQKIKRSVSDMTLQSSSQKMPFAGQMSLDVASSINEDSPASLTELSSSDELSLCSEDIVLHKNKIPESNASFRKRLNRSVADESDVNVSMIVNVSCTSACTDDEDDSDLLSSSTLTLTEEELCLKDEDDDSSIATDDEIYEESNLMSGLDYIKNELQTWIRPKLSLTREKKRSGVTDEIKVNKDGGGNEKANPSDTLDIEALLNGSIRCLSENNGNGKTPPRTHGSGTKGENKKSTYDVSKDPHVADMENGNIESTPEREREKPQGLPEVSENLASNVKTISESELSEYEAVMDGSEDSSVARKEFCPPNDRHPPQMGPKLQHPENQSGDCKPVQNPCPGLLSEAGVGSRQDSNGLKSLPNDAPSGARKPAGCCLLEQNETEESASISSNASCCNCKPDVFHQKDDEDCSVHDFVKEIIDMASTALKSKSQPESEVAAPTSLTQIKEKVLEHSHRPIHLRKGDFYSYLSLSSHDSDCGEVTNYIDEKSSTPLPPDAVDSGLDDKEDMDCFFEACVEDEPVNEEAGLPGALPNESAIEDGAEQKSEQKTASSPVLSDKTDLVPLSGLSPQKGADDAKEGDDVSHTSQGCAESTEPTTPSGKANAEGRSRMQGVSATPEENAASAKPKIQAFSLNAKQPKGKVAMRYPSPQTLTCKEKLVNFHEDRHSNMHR
# T1 sequence (P63331 whole entry): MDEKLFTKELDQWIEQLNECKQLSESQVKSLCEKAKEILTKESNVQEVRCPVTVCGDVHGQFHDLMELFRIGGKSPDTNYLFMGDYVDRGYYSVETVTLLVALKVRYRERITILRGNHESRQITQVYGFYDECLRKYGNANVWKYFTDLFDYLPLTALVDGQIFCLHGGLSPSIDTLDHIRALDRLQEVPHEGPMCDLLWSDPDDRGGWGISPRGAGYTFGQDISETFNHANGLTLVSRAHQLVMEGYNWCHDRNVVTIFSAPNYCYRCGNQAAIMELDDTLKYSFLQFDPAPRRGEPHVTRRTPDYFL
molecule,measurement,setting,value
"C=C1[C@@H](O)[C@@H]2O[C@]3(CC[C@H](/C=C/[C@@H](C)[C@@H]4CC(C)=C[C@@]5(O[C@H](C[C@@](C)(O)C(=O)O)CC[C@H]5O)O4)O3)CC[C@H]2O[C@@H]1[C@@H](O)C[C@H](C)[C@H]1O[C@@]2(CCCCO2)CC[C@H]1C [OA, okadaic acid]",baseline phosphorylation of PDE4D3 Ser-54,[1],increase in the baseline phosphorylation of PDE4D3 Ser-54
same,"mAKAP-bound PDE4D3 activity, Fsk and OA treatment together",[2],synergistically increased PDE4D3 activity
same,increase in mAKAP-associated phosphodiesterase activity when PKA was also inhibited,[3]; 10 nM OA with 50 nM PKI,60%
same,increase in mAKAP-associated phosphodiesterase activity,"[3]; 10 nM OA, native complexes from adult rat heart",30%
same,inhibition of mAKAP-associated phosphatase activity,[4],all immunoprecipitated phosphatase activity was inhibited
same,baseline phosphorylation of SRF Ser^103,[5],promoted baseline phosphorylation of SRF Ser^103
"Nc1ncnc2c1nc(Sc1ccc(Cl)cc1)n2[C@@H]1O[C@@H]2COP(=O)([O-])O[C@H]2[C@H]1O.[Na+] [CPT-cAMP, 8-(4-chlorophenylthio)adenosine 3′,5′-cyclic monophosphate]",increase of mAKAP-associated phosphatase activity,[6],2.5 fold
PKA (cAMP-dependent protein kinase) endogenous in HEK293 cells,B56δ Ser-566 phosphorylation in mAKAP immunoprecipitates,[7],B56δ phosphorylation was detected only after FSK/IBMX treatment and only when B56δ was co-expressed with wildtype mAKAP and not the ΔPKA mutant
same,phosphatase activity in mAKAP immunoprecipitates after Fsk/IBMX,[7],no increase was obtained when B56δ was co-expressed with the mAKAP ΔPKA mutant scaffold
same,phosphatase activity in mAKAP immunoprecipitates after Fsk/IBMX,[8],cAMP elevation increased phosphatase activity in mAKAP complexes 1.7 fold
B1,Iso-induced SRF Ser^103 phosphorylation,[9],potentiated the induction of SRF Ser^103 phosphorylation
same,Iso-induced ARVM hypertrophy,[10],attenuated the eccentric hypertrophy
same,Iso-induced ARVM hypertrophy,[10]; listed as PDB,promoted ARVM concentric hypertrophy
same,PE-induced ARVM hypertrophy,[10]; 20 μM PE 24 hours,did not enhance nor diminish
same,basal ARVM morphology,[10]; no drug,no effect
same,endogenous mAKAPβ-PP2A association,[11],competed endogenous mAKAPβ-PP2A association
